Consider one substance from patent US20170128546A1.

The target of assay [1] is lysozyme variant 2-3-7 (human).
Assay [2] has as its target wild type human lysozyme (human) (UniProt P61626).
Assay [3] has as its target lysozyme variant 2-3-7 (human). The source holds these as a separate data set.

For the substance mucin, the IC50 - Mucin (µg/mL): concentration of polyanion that inhibits lytic activity of the enzyme on Micrococcus luteus by 50% in assay [1] amounted to 73 µg/mL; in assay [2], 11 µg/mL. In assay [3], this substance had a fold increase in IC50 for mucin against WT-LYZ of 6.91 fold.
